Laboratory results from patent publication US10509035B2, “Antibodies, antibody drug conjugates and methods of use” (GAMAMABS PHARMA, priority 2015, dated 2019).

Columns and labels:
[1] = tested on: COV434 AMHR-II transfected cell line; experiment: Apoptosis induction, Annexin V-FITC / propidium iodide flow cytometry; assay type: cell-based; conditions: 250 μg/ml, 48 hours
Experimental: The percentage of apoptotic was assessed using the Annexin V-Fluos Staining kit (Roche) according to the manufacturer's protocol. […] Carboplatin (300 μM) was used as positive control. After washes and centrifugation, the cell pellets were resuspended in the Annexin-V-Fluorescein and propidium iodide reagents. Following 10 minutes incubation at room temperature, samples were analyzed by flow cytometry on a BD Accuri™ C6 flow cytometer (BD Bioscience).

[2] = tested on: COV434 AMHR-II transfected cell line; experiment: Co-localization with the lysosomal marker LAMP-1 (immunofluorescence); assay type: cell-based
Experimental: Antibody mediated internalization were assessed by flow cytometry analysis and by immunofluorescence imaging. Flow cytometry experiments was done on the two expressing AMHR-II cell lines: COV434 WT with low level of expression and COV434-AMHR-II transfected cell line with high level of expression. Briefly, 5×10^5 cells were incubated with 3C23K at 10 μg/ml and incubated 30 min at 4° C. After washes, DMEM/GlutaMax (Gibco) medium, cold or pre-warmed at 37° C., was added and incubated at 4° C. or 37° C. at different time points (15 min, 30 min and 60 min). Phycoerythrin-conjugated anti-human IgG antibody (1:200, Beckman-Coulter) was added for 30 min at 4° C. FACS analysis of the resuspended cells was done on a BD Accuri™ C6 flow cytometer (BD Bioscience). As depicted in FIGS. 9A and 9B, the internalization of the 3C23K observed at 37° C. is fast whatever the level of AMHR-II expression. For immunofluorescence imaging experiments, COV434 AMHR-II transfected cell line were grown on poly-D lysine coated glass coverslips overnight at 37° C. at a density of 75000 cells/cm^2. Cells were incubated with 3C23K directly labelled with Alexa Fluor 488 for 1H30 at 4° C. to carry out surface labelling. […] Internalization was quantified by counting the number of visible vesicles in cell section at different incubation time using Image J software. […]

[3] = target: T1, AMHR-II receptor protein (AMHR-II-ECD-Fc) (Homo sapiens, UniProt Q16671); experiment: Binding kinetic parameters by surface plasmon resonance (Bia3000) on immobilized AMHR-II-ECD-Fc; conditions: SPR, 25° C., Langmuir 1:1 fitting model
T1 construct: Fc (C); purchased R&D System
T1 sequence (Q16671 18-149 limits assumed): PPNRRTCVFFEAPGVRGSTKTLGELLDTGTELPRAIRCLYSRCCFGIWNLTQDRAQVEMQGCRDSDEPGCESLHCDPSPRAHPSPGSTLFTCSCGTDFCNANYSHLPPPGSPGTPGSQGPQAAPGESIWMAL
Experimental: Immobilization of AMHRII was performed on a Bia3000 apparatus at 25° C. in HBS-EP (HEPES 10 mM, NaCl 150 mM, EDTA 3 mM, P20 surfactant 0.005%) at […] flow rate on CM5 sensor chip using EDC/NHS (1-Ethyl-3-3-dimethylaminopropyl carbodiimidehydrochloride) activation according to the manufacturer's instructions (GEHealthcare). Briefly, carboxyl functions of CM5 sensor chip were activated with 0.4M EDC/0.1M NHS during 7 min. A solution of AMHR-II-ECD-Fc (R&D System) at 2.5 μg/ml in sodium acetate buffer was injected during 12 min. An injection of 1M ethanolamine hydrochloride was used to neutralize the activation. Recombinant AMHR-II was covalently immobilized at 1270 RU level. A control reference surface was prepared using the same chemical treatment of without injection of AMHRII.
Antibodies at different concentrations (from 0.5 nM to 133 nM) were injected during 180s on AMHRII-coated flowcell and the control flowcell. After a dissociation step of 400s in running buffer, sensor surfaces were regenerated using 5 μl of Glycine-HCl pH1.7. All the sensorgrams were corrected by subtracting the low signal from the control reference surface. Kinetic parameters were evaluated from the sensorgrams using a Langmuir 1:1 fitting model on the BiaEvaluation 4.2 software.

[4] = target: T2, AMHR2 receptor expressed at the surface membrane of the COV434 AMHR2 transfected cell line (Homo sapiens, UniProt Q16671); experiment: FACS binding to AMHR-II receptor at the surface of the COV434 AMHR-II transfected cell line; conditions: concentrations 0.5 to 75 μg/ml, Hill slope fit (Example 4)
T2 construct: expressed in transfected cells; host or cells: COV434
T2 sequence (Q16671 18-573): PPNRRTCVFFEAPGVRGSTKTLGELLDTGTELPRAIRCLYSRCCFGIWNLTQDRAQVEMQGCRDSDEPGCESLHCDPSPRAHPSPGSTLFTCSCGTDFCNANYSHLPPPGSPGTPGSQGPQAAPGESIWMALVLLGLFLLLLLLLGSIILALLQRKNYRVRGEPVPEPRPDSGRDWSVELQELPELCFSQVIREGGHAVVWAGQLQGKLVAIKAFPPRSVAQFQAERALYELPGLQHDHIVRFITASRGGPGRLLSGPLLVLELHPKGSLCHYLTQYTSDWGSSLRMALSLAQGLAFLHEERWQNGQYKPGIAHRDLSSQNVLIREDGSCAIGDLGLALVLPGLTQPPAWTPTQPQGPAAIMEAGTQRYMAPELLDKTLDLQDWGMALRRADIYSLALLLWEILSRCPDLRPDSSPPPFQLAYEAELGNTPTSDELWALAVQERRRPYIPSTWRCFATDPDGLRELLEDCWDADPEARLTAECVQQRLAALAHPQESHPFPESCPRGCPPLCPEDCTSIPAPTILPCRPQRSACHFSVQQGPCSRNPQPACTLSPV
Experimental: The COV434 AMHR-II transfected and the COV434 WT cell lines were maintained in DMEM/GlutaMax (Gibco) supplemented with 10% FBS, penicillin 100 U/ml and Streptomycin 100 μg/ml. Geneticin at 666 μg/ml was added for the COV434 AMHR-II transfected cell line. […] After washes, Phycoerythrin-conjugated anti-human IgG antibody (1:200, Beckman-Coulter) was added for 1 hour at room temperature. FACS analysis of the resuspended cells was done on a BD Accuri™ C6 flow cytometer (BD Bioscience).
The binding capacity of the anti-AMHR-II antibody variants K4D24 and 6C59 to the AMHR-II expressing cell lines was evaluated by flow cytometry analysis in the same manner as example 4. FACS analysis with COV434-AMHR-II transfected cell line is described in FIG. 16. The Kapparent of the K4D24 and 6C59 variants were improved by a factor of 20 and 40 fold respectively as compared to the 3C23K (0.098 μg/ml and 0.05 μg/ml versus 2.2 μg/ml). The binding capacity of these variants was also assayed on the low expressing AMHR-II COV434 WT cell line. In this setting the binding was evaluated with three concentrations of variants (25, 10 and 5 μg/ml) and three concentrations of 3C23K (50, 25 and 10 μg/ml).

[5] = tested on: COV434 AMHR-II transfected cell line; experiment: Antibody internalization (flow cytometry and immunofluorescence imaging); assay type: cell-based
Experimental: Antibody mediated internalization were assessed by flow cytometry analysis and by immunofluorescence imaging. Flow cytometry experiments was done on the two expressing AMHR-II cell lines: COV434 WT with low level of expression and COV434-AMHR-II transfected cell line with high level of expression. Briefly, 5×10^5 cells were incubated with 3C23K at 10 μg/ml and incubated 30 min at 4° C. After washes, DMEM/GlutaMax (Gibco) medium, cold or pre-warmed at 37° C., was added and incubated at 4° C. or 37° C. at different time points (15 min, 30 min and 60 min). Phycoerythrin-conjugated anti-human IgG antibody (1:200, Beckman-Coulter) was added for 30 min at 4° C. FACS analysis of the resuspended cells was done on a BD Accuri™ C6 flow cytometer (BD Bioscience). As depicted in FIGS. 9A and 9B, the internalization of the 3C23K observed at 37° C. is fast whatever the level of AMHR-II expression. For immunofluorescence imaging experiments, COV434 AMHR-II transfected cell line were grown on poly-D lysine coated glass coverslips overnight at 37° C. at a density of 75000 cells/cm^2. Cells were incubated with 3C23K directly labelled with Alexa Fluor 488 for 1H30 at 4° C. to carry out surface labelling. Cell surface bound antibodies were allowed to internalize by incubating cells in prewarmed medium at 37° C. At appropriate time points, coverslips were removed and cells were washed in PBS, then fixed in formaline (4%, 30 min at room temperature) and permeabilized (Triton X-100 0.5%, 5 min at room temperature). Nuclei were stained with DAPI (4′,6-diamidino-2-phenylindole) and coverslips were mounted on microscope slides and imaged with Leica DM5000 microscope (Leica Microsystems). Internalization was quantified by counting the number of visible vesicles in cell section at different incubation time using Image J software.
The internalization capacity of the K4D24 and 6C59 variants was assayed by fluorescence cytometry analysis in the same manner as in Example 8 except for the concentrations used. Due to their strong binding, K4D24 and 6C59 were used at 0.5 μg/ml and 0.3 μg/ml respectively whereas the 3C23K was used at 10 μg/ml.

[6] = target: T3, FCGRIIIA receptor (CD16a) (Homo sapiens, UniProt P08637); experiment: ELISA binding to the extracellular domain of CD16a; conditions: 200 ng per well CD16a, 0.3 to 5.0 μg/ml
T3 construct: purchased R&D System
T3 sequence (P08637 17-208 limits assumed): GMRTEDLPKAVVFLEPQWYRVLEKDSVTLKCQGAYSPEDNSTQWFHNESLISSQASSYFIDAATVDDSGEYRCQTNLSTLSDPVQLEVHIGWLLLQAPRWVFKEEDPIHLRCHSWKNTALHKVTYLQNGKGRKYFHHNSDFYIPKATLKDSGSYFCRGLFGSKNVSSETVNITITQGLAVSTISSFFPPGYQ
Experimental: The binding of anti-AMHR-II antibodies to the extracellular domain of CD16a was evaluated by ELISA. ELISA plates (96 wells, Maxisorp, NUnc) were coated overnight at +4° C. with 200 ng per wells of CD16a (R&D System) or an irrelevant protein (NS, non-specific binding). The experimental protocol was identical to that described for example 1. The unconjugated and ADC 3C23K antibodies were tested at concentrations from 0.3 to 5.0 μg/ml.

COV434 WT cell line = experiment: Antibody internalization (flow cytometry); assay type: cell-based; conditions: 10 μg/ml, low level of AMHR-II expression
Experimental: Antibody mediated internalization were assessed by flow cytometry analysis and by immunofluorescence imaging. Flow cytometry experiments was done on the two expressing AMHR-II cell lines: COV434 WT with low level of expression and COV434-AMHR-II transfected cell line with high level of expression. Briefly, 5×10^5 cells were incubated with 3C23K at 10 μg/ml and incubated 30 min at 4° C. After washes, DMEM/GlutaMax (Gibco) medium, cold or pre-warmed at 37° C., was added and incubated at 4° C. or 37° C. at different time points (15 min, 30 min and 60 min). Phycoerythrin-conjugated anti-human IgG antibody (1:200, Beckman-Coulter) was added for 30 min at 4° C. FACS analysis of the resuspended cells was done on a BD Accuri™ C6 flow cytometer (BD Bioscience). As depicted in FIGS. 9A and 9B, the internalization of the 3C23K observed at 37° C. is fast whatever the level of AMHR-II expression. For immunofluorescence imaging experiments, COV434 AMHR-II transfected cell line were grown on poly-D lysine coated glass coverslips overnight at 37° C. at a density of 75000 cells/cm^2. Cells were incubated with 3C23K directly labelled with Alexa Fluor 488 for 1H30 at 4° C. to carry out surface labelling. […] Internalization was quantified by counting the number of visible vesicles in cell section at different incubation time using Image J software.

B1: 3C23K (antibody, V domains shown)
VH: QVRLVQSGAEVKKPGASVKVSCKASGYTFTSYHIHWVRQAPGQRLEWMGWIYPGDDSTKYSQKFQGRVTITRDTSASTAYMELSSLRSEDTAVYYCTRGDRFAYWGQGTLVTVSS
VL: DIQMTQSPSTLSASVGDRVTITCRASSSVRYIAWYQQKPGKAPKLLTYPTSSLKSGVPSRFSGSGSGTEFTLTISSLQPDDFATYYCLQWSSYPWTFGGGTKVEIK
modifications: 3C23K/3C23; 3C23K
Which apoptosis induction [1] does the source give for B1 here?
The apoptosis induction was “did not induce any apoptosis”.

What about the “detection in the lysosomal compartment (colocalization with LAMP-1)” value [2] of the same molecule?
The value was “rapidly detected in the lysosomal compartment”.

What about the KA [3] of the same molecule?
Its KA is 1.81e+10 M⁻¹.

And the Kd [3]?
The Kd was 0.05 nM.

And the ka [3]?
The ka was 125000 M⁻¹ s⁻¹.

And the kd [3]?
The kd was 6.93e-06 s⁻¹.

And the KDapparent [4]?
The KDapparent was roughly 3.1 µg/mL.

What about the “internalization observed at 37° C.” value ([5]; flow cytometry, 10 μg/ml, high level of AMHR-II expression) of the same molecule?
The value was “fast”.

What about the “time of maximum of intracellular location” value ([5]; immunofluorescence imaging, 3C23K Alexa Fluor 488, 37° C.) of the same molecule?
Its value is 60 min.

And the “binding to CD16a” value [6]?
The value was “very high affinity”.

What about the “internalization observed at 37° C.” value (COV434 WT cell line) of the same molecule?
The value was “fast”.
